In assay [1] the target is TOM complex (translocase of the mitochondrial outer membrane), human, endogenous core complex (human (endogenous in HeLa or U2OS)) (UniProt O96008).
Assay [2] has the same target. Description: native gel or EMSA; competition: mitochondria preincubated on ice for 10 min with 20 µg pSu9-DHFR-His, 1 mM methotrexate and 1 mM NADPH, depolarized, then import of radiolabeled PINK1; BN-PAGE, 700 kDa species quantified (clogger and TOM complex).

The results in this text go back to PMC9110474.

The substance pSu9-DHFR-His yielded an integration of radiolabeled TOM40 into the MOM of mitochondria preincubated with pSu9-DHFR, % of untreated mitochondria in assay [1] of 60%. In assay [2], this substance registered a PINK1 association with the TOM complex left with pSu9-DHFR, % of control of under 40%.
